The substances below were run against HLA-A*02:01 (Homo sapiens, UniProt P04439, D140Y/D185E/D98H/E176V/E277Q/G131W/G231S/I119V/I121R/I166T/I218V/L300P/L318F/N151K/N90K/P208A/P217A/Q86G/Q94H/R138H/R169H/T345S) (assay: MHC binding assay (UV-ligand exchange, β2m ELISA)). Details: MHC class I binding score; binding to HLA-A*02:01 ranged by peptide exchange yield (UV-ligand exchange, β2m ELISA).
Description: Candidate peptides for T cell based therapies according to the present invention were further tested for their MHC binding capacity (affinity). The individual peptide-MHC complexes were produced by UV-ligand exchange, where a UV-sensitive peptide is cleaved upon UV-irradiation, and exchanged with the peptide of interest as analyzed. Only peptide candidates that can effectively bind and stabilize the peptide-receptive MHC molecules prevent dissociation of the MHC complexes. To determine the yield of the exchange reaction, an ELISA was performed based on the detection of the light chain (β2m) of stabilized MHC complexes. The assay was performed as generally described in Rodenko et al. (Rodenko et al., 2006).
96 well MAXISorp plates (NUNC) were coated over night with 2 ug/ml streptavidin in PBS at room temperature, washed 4× and blocked for 1 h at 37° C. in 2% BSA containing blocking buffer. Refolded HLA-A*02:01/MLA-001 monomers served as standards, covering the range of 15-500 ng/ml. Peptide-MHC monomers of the UV-exchange reaction were diluted 100 fold in blocking buffer. Samples were incubated for 1 h at 37° C., washed four times, incubated with 2 ug/ml HRP conjugated anti-β2m for 1 h at 37° C., washed again and detected with TMB solution that is stopped with […]. Absorption was measured at 450 nm. Candidate peptides that show a high exchange yield (preferably higher than 50%, most preferred higher than 75%) are generally preferred for a generation and production of antibodies or fragments thereof, and/or T cell receptors or fragments thereof, as they show sufficient avidity to the MHC molecules and prevent dissociation of the MHC complexes.

| Peptide exchange | Substance |
| --- | --- |
| +++ (>50 = +++) | 81 (FLDDGNQML; listed as Homo sapiens) [compound 81] |
| +++ (>50 = +++) | 83 (GLDKVITVL; listed as Homo sapiens) [compound 83] |
| ++++ (>75% = ++++) | 85 (GLLDVMYQV; listed as Homo sapiens) [compound 85] |
| +++ (>50 = +++) | 86 (HTLPHEIVVNL; listed as Homo sapiens) [compound 86] |
| +++ (>50 = +++) | 89 (ILDNSPAFL; listed as Homo sapiens) [compound 89] |
| ++++ (>75% = ++++) | 91 (ILLDRLFSV; listed as Homo sapiens) [compound 91] |
| +++ (>50 = +++) | 93 (LLAKAVQNV; listed as Homo sapiens) [compound 93] |
| +++ (>50 = +++) | 94 (LLDAFSIKL; listed as Homo sapiens) [compound 94] |
| +++ (>50 = +++) | 95 (LLDALQHEL; listed as Homo sapiens) [compound 95] |
| +++ (>50 = +++) | 96 (LLDMSLVKL; listed as Homo sapiens) [compound 96] |
| +++ (>50 = +++) | 103 (SLDAVMPHL; listed as Homo sapiens) [compound 103] |
| ++++ (>75% = ++++) | 106 (TLSEICEFI; listed as Homo sapiens) [compound 106] |
| ++++ (>75% = ++++) | 107 (TLVAFLQQV; listed as Homo sapiens) [compound 107] |
| ++ (>20% = ++) | 109 (VIDDLIQKL; listed as Homo sapiens) [compound 109] |
| +++ (>50 = +++) | 110 (VLDTLTKVL; listed as Homo sapiens) [compound 110] |
| +++ (>50 = +++) | 111 (VLDVSFNRL; listed as Homo sapiens) [compound 111] |

| Peptide exchange | Substance |
| --- | --- |
| +++ (>50 = +++) | 115 (YIDDVFMGL; listed as Homo sapiens) [compound 115] |
| +++ (>50 = +++) | 117 (KQQASQVLV; listed as Homo sapiens) [compound 117] |
| ++++ (>75% = ++++) | 118 (TMIEICEKL; listed as Homo sapiens) [compound 118] |
| +++ (>50 = +++) | 122 (YVDDFGVSV; listed as Homo sapiens) [compound 122] |
| +++ (>50 = +++) | 127 (TLISDIEAVKA; listed as Homo sapiens) [compound 127] |
| +++ (>50 = +++) | 131 (FVDPNGKISL; listed as Homo sapiens) [compound 131] |
| +++ (>50 = +++) | 135 (FLDDQETRL; listed as Homo sapiens) [compound 135] |
| +++ (>50 = +++) | 138 (YLDKTFYNL; listed as Homo sapiens) [compound 138] |
| +++ (>50 = +++) | 140 (RLEAYLARV; listed as Homo sapiens) [compound 140] |
| +++ (>50 = +++) | 141 (YVIDPIKGL; listed as Homo sapiens) [compound 141] |
| +++ (>50 = +++) | 142 (FVDGSAIQV; listed as Homo sapiens) [compound 142] |
| ++++ (>75% = ++++) | 143 (ILDDSALYL; listed as Homo sapiens) [compound 143] |
| +++ (>50 = +++) | 147 (ILDDQTNKL; listed as Homo sapiens) [compound 147] |
| +++ (>50 = +++) | 148 (TLKDIVQTV; listed as Homo sapiens) [compound 148] |
| ++++ (>75% = ++++) | 154 (TLGTATFTV; listed as Homo sapiens) [compound 154] |

The remaining lines, values behind:

| Substance | Peptide exchange |
| --- | --- |
| 80 (FADELSHLL; listed as Homo sapiens) [compound 80] | +++ (>50 = +++) |
| 82 (GIDDLHISL; listed as Homo sapiens) [compound 82] | +++ (>50 = +++) |
| 84 (GLDTILQNL; listed as Homo sapiens) [compound 84] | ++++ (>75% = ++++) |
| 87 (IIDPPLHGQLL; listed as Homo sapiens) [compound 87] | ++ (>20% = ++) |
| 88 (ILDGIIREL; listed as Homo sapiens) [compound 88] | +++ (>50 = +++) |
| 90 (ILDYIHNGL; listed as Homo sapiens) [compound 90] | +++ (>50 = +++) |
| 92 (KLPGFPTQDDEV; listed as Homo sapiens) [compound 92] | ++ (>20% = ++) |
| 97 (NLDATVTAL; listed as Homo sapiens) [compound 97] | +++ (>50 = +++) |
| 98 (NLPNTNSILGV; listed as Homo sapiens) [compound 98] | +++ (>50 = +++) |
| 99 (NLPSELPQL; listed as Homo sapiens) [compound 99] | +++ (>50 = +++) |
| 100 (NLREILQNV; listed as Homo sapiens) [compound 100] | +++ (>50 = +++) |
| 101 (NVDENVAEL; listed as Homo sapiens) [compound 101] | ++ (>20% = ++) |
| 102 (RLPDQFSKL; listed as Homo sapiens) [compound 102] | +++ (>50 = +++) |
| 104 (SLDQIIQHL; listed as Homo sapiens) [compound 104] | +++ (>50 = +++) |
| 105 (SLKQTVVTL; listed as Homo sapiens) [compound 105] | +++ (>50 = +++) |
| 108 (TVIRPLPGL; listed as Homo sapiens) [compound 108] | ++ (>20% = ++) |
| 112 (VLPAVLTRL; listed as Homo sapiens) [compound 112] | +++ (>50 = +++) |
| 113 (VLYSLVSKI; listed as Homo sapiens) [compound 113] | +++ (>50 = +++) |
| 114 (VVDDIVSKL; listed as Homo sapiens) [compound 114] | ++ (>20% = ++) |
| 119 (SLGLGFISRV; listed as Homo sapiens) [compound 119] | +++ (>50 = +++) |
| 120 (QLMEGKVVL; listed as Homo sapiens) [compound 120] | ++++ (>75% = ++++) |

| Substance | Peptide exchange |
| --- | --- |
| 123 (LLGEGIPSA; listed as Homo sapiens) [compound 123] | ++++ (>75% = ++++) |
| 124 (FLPQKIIYL; listed as Homo sapiens) [compound 124] | ++++ (>75% = ++++) |
| 125 (YLFAFLNHL; listed as Homo sapiens) [compound 125] | ++++ (>75% = ++++) |
| 126 (SLIDFVVTC; listed as Homo sapiens) [compound 126] | +++ (>50 = +++) |
| 129 (VLPDDLSGV; listed as Homo sapiens) [compound 129] | +++ (>50 = +++) |
| 130 (GLVDVLYTA; listed as Homo sapiens) [compound 130] | +++ (>50 = +++) |
| 132 (FLDASGAKL; listed as Homo sapiens) [compound 132] | ++++ (>75% = ++++) |
| 134 (LLDEVLHTM; listed as Homo sapiens) [compound 134] | ++++ (>75% = ++++) |
| 136 (FAYDGKDYIAL; listed as Homo sapiens) [compound 136] | +++ (>50 = +++) |
| 137 (ILPSNLLTV; listed as Homo sapiens) [compound 137] | +++ (>50 = +++) |
| 139 (AVDATVNQV; listed as Homo sapiens) [compound 139] | +++ (>50 = +++) |
| 144 (SVDEVEISV; listed as Homo sapiens) [compound 144] | +++ (>50 = +++) |
| 145 (TLPNIYVTL; listed as Homo sapiens) [compound 145] | +++ (>50 = +++) |
| 146 (GVGPVPARA; listed as Homo sapiens) [compound 146] | +++ (>50 = +++) |
| 149 (YLDTFALKL; listed as Homo sapiens) [compound 149] | ++++ (>75% = ++++) |
| 150 (KLFPSPLQTL; listed as Homo sapiens) [compound 150] | ++++ (>75% = ++++) |
| 151 (FLGEPASYLYL; listed as Homo sapiens) [compound 151] | ++++ (>75% = ++++) |
| 152 (IMEDFTTFL; listed as Homo sapiens) [compound 152] | ++++ (>75% = ++++) |
| 153 (RLDEVSREL; listed as Homo sapiens) [compound 153] | +++ (>50 = +++) |
| 156 (ALMDTDGSGKLNL; listed as Homo sapiens) [compound 156] | +++ (>50 = +++) |
